From PMC4802922

Target: Dnmt3a-CD wt;Dnmt3L (Mus musculus;) (UniProt O88508+Q9CWR8)
Assay: 2-aminopurine fluorescence (base flipping)
Conditions: 0.1 mM AdoMet; N15 of strand 1 = 2-aminopurine (replaces target C); C15 of strand 2 = 5-methylcytosine; Fluorescence polarization: 10 nM duplex, 0.1 mM AdoHcy, Dnmt3a reaction buffer (composition not given), 25 °C; enzyme up to 600-800 nM

Sequence of Dnmt3a-CD wt;Dnmt3L (Mus musculus;) (O88508 608-908, chain 1 of 2): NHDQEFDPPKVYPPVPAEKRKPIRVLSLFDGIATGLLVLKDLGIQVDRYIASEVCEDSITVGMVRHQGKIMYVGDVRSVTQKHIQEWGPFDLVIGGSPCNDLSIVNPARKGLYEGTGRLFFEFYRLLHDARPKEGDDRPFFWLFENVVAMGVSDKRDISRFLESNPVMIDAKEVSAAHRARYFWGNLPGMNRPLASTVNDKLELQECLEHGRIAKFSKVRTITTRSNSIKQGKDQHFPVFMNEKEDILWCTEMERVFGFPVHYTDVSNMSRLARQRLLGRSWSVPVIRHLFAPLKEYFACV
Sequence of Dnmt3a-CD wt;Dnmt3L (Mus musculus;) (Q9CWR8 whole entry, chain 2 of 2): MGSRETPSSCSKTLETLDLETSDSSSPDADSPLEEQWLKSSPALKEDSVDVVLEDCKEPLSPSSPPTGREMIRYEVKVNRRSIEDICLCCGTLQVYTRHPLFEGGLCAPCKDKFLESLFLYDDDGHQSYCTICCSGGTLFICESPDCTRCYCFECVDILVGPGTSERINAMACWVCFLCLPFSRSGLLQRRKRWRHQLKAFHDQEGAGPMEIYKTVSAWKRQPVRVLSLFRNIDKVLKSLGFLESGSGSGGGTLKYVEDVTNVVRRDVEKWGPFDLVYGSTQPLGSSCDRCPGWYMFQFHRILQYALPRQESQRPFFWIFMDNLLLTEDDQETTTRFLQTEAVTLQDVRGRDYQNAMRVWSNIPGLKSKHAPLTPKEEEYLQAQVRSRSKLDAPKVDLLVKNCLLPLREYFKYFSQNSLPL

**Q.** Which binding signal does the source give for “CTGAATACTACTTGNGCTCTCTAACCTGAT / ATCAGGTTAGAGAGCGCAAGTAGTATTCAG [GBGC/CGMG]” here?
**A.** The binding signal was 100%.
